Experiment: soluble on expression in E. coli; label from the status in PepcDB or PDB records

Row | Sequence | soluble on expression in E. coli
1 | MAQPSTTYKFELNLTDLDRNVYESVKQTIARHPSETEERMAVRLLAYALWYNENLSFGRGLSDVDEPALWEKSLDDRVLHWIEVGQPDADRLTWCSRRTERTSLLAYGSLRVWEGKVVSAVKNLKNLSIAAVPQEVLETLATDMPRSIKWDVMISEGTVFVTDDRGQHEVQLQWLLGERG | not soluble
2 | MTDQGLEGSNPVDLSKHPSGIVPTLQNIVSTVNLDCKLDLKAIALQARNAEYNPKRFAAVIMRIREPKTTALIFASGKMVCTGAKSEDFSKMAARKYARIVQKLGFPAKFKDFKIQNIVGSCDVKFPIRLEGLAYSHAAFSSYEPELFPGLIYRMKVPKIVLLIFVSGKIVITGAKMRDETYKAFENIYPVLSEFRKIQQ | soluble
3 | MNIKSLQLFIHLCESKSFAKTAAAMHISPSALSRQIQKLEEETNQQLFVRDNRSVELTTQGKKLMPVALKILSEWQQYQNHIKGTEGELKGEIRLFCSVTASYSHLPELISDFRLQHPFIEFKLSTGDPAQAIDKILADEADIAISAKSEQMPNKIAFET | not soluble
4 | MHRTARNFAEIKPNLLFRKAKMARKSAEKYVAKKIQVPELQGEALFGLHSVLEAIRSGKRDFHSVFLKKAVENRADSDARIKEILSRIDELGIQKTLLTDDQLDRLTEFQLHNGICMDASALQFSNFEPKTVSIFVDKVLDPGNLGAIGRSAWYFGADGLGLVKGRGPKSITPAMIKSSCGALEHLPVQQFLNFNEFRDKIKAAGGELVATCDPGAAEKAGISAKSLDQWTPEKPVGIVLGDEGVGISRGILNLCDTVISISPVRKDGSNVTSLNVSVVAGILLHHISLQNRTN | not soluble
5 | MAHHHHHHMHLKIVCLSDEVREMYKNHKTHHEGDSGLDLFIVKDEVLKPKSTTFVKLGIKAIALQYKSNYYYKCEKSENKKKDDDKSNIVNTSFLLFPRSSISKTPLRLANSIGLIDAGYRGEIIAALDNTSDQEYHIKKNDKLVQLVSFTGEPLSFELVEELDETSRGEGGFGSTSNNKY | soluble
6 | KQQLTEDGDSFLHLAIIHEEKALTMEVIRQVKGDLAFLNFQNNLQQTPLHLAVITNQPEIAEALLGAGCDPELRDFRGNTPLHLACEQGCLASVGVLTQSCTTPHLHSILKATNYNGHTCLHLASIHGYLGIVELLVSLGADVNAQEPCNGRTALHLAVDLQNPDLVSLLLKCGADVNRVTYQGYSPYQLTWGRPSTRIQQQLGQLTLENLQMLPESEDEESYDTESEFTEFTEDE | soluble
7 | MTEVIAYLIEHFQDFDTCPPPEDLGMLLEEAGFDTMEIGNTLMMMEVLLNSSEFSAEPADSGALRVYSKEETDNLPQEVMGLMQYLIEEKAVSCEQREIIIHALMHIPGDEITVDTAKVLTLLLLWANKSELPVLVGDELMSALLLDNKPTMN | not soluble
8 | MGSDKIHHHHHHMITFIGHVSKDVNVVDGKREIAYGGGVVMGAITSSLLGVKTKVITKCTREDVSKFSFLRDNGVEVVFLKSPRTTSIENRYGSDPDTRESFLISAADPFTESDLAFIEGEAVHINPLWYGEFPEDLIPVLRRKVMFLSADAQGFVRVPENEKLVYRDWEMKEKYLKYLDLFKVDSREAETLTGTNDLRESCRIIRSFGAKIILATHASGVIVFDGNFYEASFRSWSLEGRTGRGDTCTAAFLVGFVFKKMSIEKATKFAAAVTSVKMRHPGPLRREDLEAISGDQYF | soluble
9 | MMIIGINGSPRKNGNTIEMLKSALDGAKAQGAETELINLYDYNYKGCVSCFSCKLKGGRSYGKCALKDDLKPILEKIEKADAFILASPIYFGMVTGEMRSFMERLLFQYLVYDKDHSSLFNRKIKTGFIYTMNVPETYLDSVGYNKLFESNEATLKRIFGASEYILSTDTYQFDDYSKYEASMFDVEAKKKRREEVFPEDCKRAYEMGASFVKLEHHHHHH | not soluble
10 | MAHHHHHHMAWTVHEDEYRTEGYDNLEEILQYVVHTEESVQQSKPTVKYTKSSQVFATPSPLTAAELSSPIKHQLTNTVPWQPQSHTPTNSSFHSLGIPYTSAQSPQQRRCNNRFNGSYSGQCDRKPKIMSSSETCILSPGARKRGMGTGQMDHMMATELNEMPMPELITQEVLASKDMMVGGGYSDWSGSGSKYFQSGALTADSLRGRVYETAKDQHGCRYLQRWLDTNCDPEALQVMMNEIIPHVGELMTDQYANFLIQKLFDIMPDDVRYKVAIVAAPQICMISLTPHGTFSVQKMIETISTREEMEIISEALCKDVVRLVKDAHGNHVIQKVLQRFDFDDKEYIYRAVATDCVSIAKNKQGCCVLQRCLEHASPRQKAALVDQVLACCLQIVQDPFGNYVLQYVLEEHDSKINDTIALAFLPHLVQLSMNKFSSNVMEKVLRGASGPVQVMYMEEMCNPEIISHLIQDDYGNYVLQTALTINAPVQAAQLVNVIRPFMPLIRNAPYAKKMEGKMENVARKVECNHFHAPRDCEVDARQGSSGGSPHGKFDRSPNHGRHYVGGTDQQQPYNHPT | not soluble
11 | MSFVQIRHISSQINRKTVSIVGSGPSGFYTAYHLLKKSPIPLNVTIWEKLPVPFGLSRYGVAPDHPEVKNCEETFTTCAEEFSSPTNQKHKFSFVGGITIGKEILLKELLDNQDAVILSYGCTGDRKLNIPGELGTKGVFSSREFVNWYNGHPDFAKDKRFTDFDWSKVSKVGIIGNGNVALDITRVLISNQIDEIWENTDISSLALNLLRRAPVKDVKLIARRDFVHSKFTNKELRELWELEKYGIRGRIDPKFFQKEMFDPSKYDRAFNRRVEMCSEYLKPFNERSKKNYKKAPPPSSGYDKFWELDYLKTPLKINRDDFGAINSLSLCNNRLNEDNSLQPLKDVNNIMTYKVDLLITSLGYAGVPMPEFSKLSIGFDKDHIANKQGRVLTSSGEIFPHLYASGWIRKGSQGVIASTMQDAFEVGDRVIQDLVVSGALSLENSIDLSNIKHTTWKDWERINKKELLRGKKEHKTRSKFLTFEELWNGVEGI | soluble
12 | MLDVKSQDISIPEAVVVLCTAPDEATAQDLAAKVLAEKLAACATLLPGATSLYYWEGKLEQEYEVQMILKTTVSHQQALIDCLKSHHPYQTPELLVLPVTHGDTDYLSWLNASLR | not soluble
13 | RSTMKYIRTLSAEIGILEGGNLDYRITVTGSDEMAVLAKGLDSMRESIRDKISQEAELIRLNQSMITGLSHDLRTPLTALLIYTEILKNEIDADRKQMQKWVLKIDEKAHQIKDMADCILNYSLLKKAAGPTALRQEPFRSVFYDSLSELCVCLEQKGFEVRPSLAWEDREICADSKYITRILDNICSNIIKYASCGDPIRIESFYQTDGCGLVFENKKSANQTQAESTGIGVRNIREMMEEMGGCCEAEETSEDYRIRLTFACSPAV | not soluble
14 | MTLKMGRVKWFNQSEGYGFISPHDGGSDVYVNKTAIANTKNKSLNEGQDVEFSTYRSIHGPSAADVIAF | not soluble
15 | SNGEEEFFDAVTGFDSDNSSGEFSEANQKVTGMIDLDTSKNNRIGKTGERPSQENGIQKHRTSLPAPMFSRSDFSVWTILKKCVGLELSKITMPIAFNEPLSFLQRITEYMEHVYLIHRASCQPQPLERMQSVAAFAVSAVASQWERTGKPFNPLLGETYELIREDLGFRFISEQVSHHPPISAFHSEGLNHDFLFHGSIYPKLKFWGKSVEAEPRGTITLELLKHNEAYTWTNPTCCVHNVIIGKLWIEQYGTVEILNHRTGHKCVLHFKPCGLFGKELHKVEGHIQDKNKKKLFMIYGKWTECLWGIDPVSYESFKKQERRGDHLRKAKLDEDSGKADSDVADDVPVAQETVQVIPGSKLLWRINTRPPNSAQMYNFTSFTVSLNELETGMEKTLPPTDCRLRPDIRGMENGNMDLASQEKERLEEKQREARRERAKEEAEWQTRWFYPGNNPYTGTPDWLYAGDYFERNFSDCPDIY | soluble
16 | MNPQLLRVTNRIIERSRETRSAYLARIEQAKTSTVHRSQLACGNLAHGFAACQPEDKASLKSMLRNNIAIITSYNDMLSAHQPYEHYPEIIRKALHEANAVGQVAGGVPAMCDGVTQGQDGMELSLLSREVIAMSAAVGLSHNMFDGALFLGVCDKIVPGLTMAALSFGHLPAVFVPSGPMASGLPNKEKVRIRQLYAEGKVDRMALLESEAASYHAPGTCTFYGTANTNQMVVEFMGMQLPGSSFVHPDSPLRDALTAAAARQVTRMTGNGNEWMPIGKMIDEKVVVNGIVALLATGGSTNHTMHLVAMARAAGIQINWDDFSDLSDVVPLMARLYPNGPADINHFQAAGGVPVLVRELLKAGLLHEDVNTVAGFGLSRYTLEPWLNNGELDWREGAEKSLDSNVIASFEQPFSHHGGTKVLSGNLGRAVMKTSAVPVENQVIEAPAVVFESQHDVMPAFEAGLLDRDCVVVVRHQGPKANGMPELHKLMPPLGVLLDRCFKIALVTDGRLSGASGKVPSAIHVTPEAYDGGLLAKVRDGDIIRVNGQTGELTLLVDEAELAAREPHIPDLSASRVGTGRELFSALREKLSGAEQGATCITF | soluble
17 | MSLPMSLTIKLFLMFLLIESSIAKQKPDLDHVNVDMSEIDYSSFFKQMIEGWEREANEKYPFRPDLNNDDSSYFLQSRDQVYVNRSFFVQGKAQAYIRQWNNWKPYRDLGNKIGVLWPTQDNDCPKIEAMNPLTYMIHGLSRRYNILPLLK | soluble
18 | MGSDKIHHHHHHMLAGKTASEIFDNIRHLVQSGGLQPGEVLPPVRELASQLAVNRNTVAAAYKRLVTSGLAVSQGRNGTAIKARDTLPALEGGDPTTPLNDISSGNPDPARLPDLPRYLGQIARTPRLYGDAPIEPRLGQWAEAWFAREIAVPFAVNLASGAIDALERLLCALLLPGDGVVVEDPCFLSSINMVRYAGFTPCPVAVDAEGMDPDGLEEALRNGARAVILTPRAHNPTGCSLTETRAHALREVLARYPQVLAIVDDHFALLSATPWHSPLPASTQRWALVRSMSKTLGPDLRLAFIASDAATSAALRLRLNAGSQWVSHLLQDLTLACLTDEAFIASMTETRRHYRQQNEKLAAALARHGFSHATPGDGLNFWLPLPAASQPYALRLARAGWLVREGEVFGIRTPSHGLRLSLGRLSDAEISRLAADIAQALDAP | not soluble
19 | MGSDKIHHHHHHDYEAVNTNPYGVSDGELGPLKYGARFMNMQQRVIPIGSPSLTTGPGNDLQNTDLISSGNYIGYFGNNNNWGFNNEANWNFTDSRMNYAYQNFYSQIFLPWNEIYEIAKDSDSPSEQAILEIANIVRNIAWLRATDVFGPIAYNSAGDGSIAPKFDSQEVVYRSMLADLSKSVELLNTISYSVMAQYDLIYNGNVQNWVKLANSLMLRIAVRVHFIDETLAKEYITKALDPKNGGVIEDISSEAKIKSSDKMPLLNSMLASVNEYNETRMGATIWGYLDGYKDPRLSAYFTEGTYGSGSWAQTGYFPVAPTNSKSKSETSYSAKFASRPKVDSNSPLYWFRASETYFLKAEAALYNLIGGDPKTFYEQGINISFQEQGVSGVATYLSGTGKPTGLTGSNYKYGTYNHDLSIGNTSPKWDDYTGNLSKQEEQLQKIITQKYLALYPNAVEAWTEYRRTGFPYLMKPMDEAAPGRIGASIEDCRVPERFRFAPTAYNSNPNMAEIPTLLGGGDIGATKLWWVRSNRPKQPNQ | not soluble
20 | DKPVLKDSMRLFEQLGRVKSRSMFGGFGIFVDETMFALVVNDTLHIRADDATIEKYKQQGYEPYVYKKRGFPVVTKYYALPEDCWSHPDSILNEVRAALEVAKAERETQAQAK | not soluble
21 | MGSDKIHHHHHHMSNTLLFRPNEARALSALFRTGGLTRASLARELDLTRSTTGTLVQNLVDAGLARERESTTGNEAEPKVGRPGIVVEIAGSGVFFLGAYIGVNRIDVIAIDLSGTVRAKATRPFSGAASRPAQAMELIVALVDEVRRTLPPGARPHGLNVALPGFLDGDGETFHAAILGWHGVSLAQPISESIDLDVPVLLENDANAVAVAETYRSAPPDGKGDDSLVVLIENGVGGGIVSNGKLHRGQLGGAGEIGHMPIGEAGFVYDAVRPGRWETFIGKDALLARYAHISGVIGSLDAFIAVLASGDPTALACARDWARWLVRGLATLACVLQPGRIILAGSVSAIYPFVAEQTEALLAASLIEGYPTPRVETSSTGNDGPALGAAYLLHQAMLAGNTRPHMRDVAVL | not soluble
